Measured values from paper PMC3071809, “Recombinant Complement Receptor 2 Radiolabeled with [^99mTc(CO)3]^+ : A Potential New Radiopharmaceutical for Imaging Activated Complement” (PLoS ONE, 2011).

Key:
[1] = molecular target: C3d construct with a free exposed thiol (Cys17, corresponding to Cys1010 of full length C3) (human); test: SPR; Biacore T100, 25°C; C3d immobilised on a CM5 chip by thiol coupling of the free Cys17; rCR2 as analyte; 0.01 M HEPES pH 7.4, 0.15 M NaCl, 3 mM EDTA, 0.005% Tween 20; equilibrium analysis, Langmuir isotherm
[2] = molecular target: T1, human C3d protein (Merck) (human, UniProt P01024 1002-1303); test: ELISA; C3d coated at two fold concentrations from 1.5 to 1500 nM/well in PBS pH 7.4; rCR2 or C2A at a fixed 1.5 µM in 0.05% BSA-PBS pH 7.4, 1 h, room temperature; detected with anti-His antibody; details: both partners purified
T1 construct: C3d fragment of complement C3, human; also called C3d antigen; immobilized C3d; source: bought: Merck, Darmstadt, Germany
T1 sequence (P01024 1002-1303): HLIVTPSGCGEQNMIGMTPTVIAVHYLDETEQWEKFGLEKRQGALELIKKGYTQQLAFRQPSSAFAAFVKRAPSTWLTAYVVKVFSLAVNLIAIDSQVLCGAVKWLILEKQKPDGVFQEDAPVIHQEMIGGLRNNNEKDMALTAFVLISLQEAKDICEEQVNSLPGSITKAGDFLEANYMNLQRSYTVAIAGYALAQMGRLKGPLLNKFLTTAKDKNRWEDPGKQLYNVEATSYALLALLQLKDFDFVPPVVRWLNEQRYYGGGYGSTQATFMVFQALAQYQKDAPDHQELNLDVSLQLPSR

[3] = molecular target: T1, human C3d protein (Merck); test: radioligand binding; radioactive ELISA: C3d coated on 12 well strips at increasing two fold concentrations, ^99mTc-rCR2 added, wells gamma counted; one site specific binding model Y = Bmax*X/(Kd+X); details: both partners purified

Kd [1] [nM] | stoichiometry N [1] | EC50 [2] [nM] | Kd [3] [nM] | Binder
570 | 1 | ~48.5 | – | recombinant Complement Receptor 2 (rCR2), Short Consensus Repeats 1 and 2 of human CR2 with the C-terminal sequence … (domain or fragment, UniProt P20023 21-154, looked up, complement receptor type 2 (CR2, CD21), human, residues 21-154: SCR1, SCR2 and the SCR2 to SCR3 linker VFPLEC; 15.5 kDa; cloned in pET-24a (NdeI/EcoRI); also called recombinant CR2; SCR1/2 fragment; not shown: His6, C-terminal, kept) ISCGSPPPILNGRISYYSTPIAVGTVIRYSCSGTFRLIGEKSLLCITKDKVDGTWDKPAPKCEYFNKYSSCPEPIVPGGYKIRGSTPYRHGDSVTFACKTNFSMNGNKSVWCQANNMWGPTRLPTCVSVFPLEC
– | – | – | 25.5 | ^99mTc-rCR2 (rCR2 radiolabeled with [^99mTc(CO)3]^+ on the His-tag) (domain or fragment, human, UniProt P20023 21-154, looked up, [^99mTc(CO)3]^+ on the C-terminal His-tag, complement receptor type 2 (CR2), human, residues 21-154, as m1; m1 with the radiolabel; also called rCR2-Tc^99m; rCR2-[^99mTc(CO)3]; source: labeled with [^99mTc(CO)3(OH2)3]^+ at 37°C; not shown: His6, C-terminal, kept) ISCGSPPPILNGRISYYSTPIAVGTVIRYSCSGTFRLIGEKSLLCITKDKVDGTWDKPAPKCEYFNKYSSCPEPIVPGGYKIRGSTPYRHGDSVTFACKTNFSMNGNKSVWCQANNMWGPTRLPTCVSVFPLEC
